# Data from the domain aggregation screens of Martell et al. (2025).
# Assay: soluble fraction after stress (log2 fold change); higher = more stays soluble; pooled small domains, quantitative proteomics
# Details: stress: pH 4
# How it was run: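 After pH 4 stress, pooled custom libraries of small protein domains were quantified with high-throughput quantitative proteomics. Aggregation propensity is taken from the fold change in each domain's soluble amount following the acid stress. The scale is log2, where higher values mean more stayed soluble.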
row,Sequence,soluble fraction (log2)
1,HMSGDKKLQMNLILEFAQQNESFRTKDIEELLQIRSSRARKLISDLVTEGRLEALGENRNRRYQLI,-0.329
2,HMQMSPREKMIYSFIESHPGTKSGEIAEKLNVPLPTVKRILSEMVSGNFIAKHGSGIGTNYSTEK,≥ 0.43
3,HMTHEIKIKSHSLFASEGTKYQWYLNNIKINDATSQELEITSPGIYKLEMTNFDGDVIEKQIIVGLTNS,-1.52
4,HMGELTNALATLSERERDVARLVAQGLDNRQIAAQLFLSEGTVRNRISDILDKLALTNRTQLAIAWLHAE,-0.615
5,HMGNVRSWKGWTSAGGTRVQMRQGDSINSMARRYGVPIQAIVAVNGIDDPAKVQPGQSVIIPTYVY,0.118
6,HMAEAIVMSTAAPVKSSPDPQSKDIFVLHEGTKVAVGDSLGDWREIRIADGNKGWVLVSAIEMI,-0.173
7,HMTISAQAITPRLEVIKNFVLMEEWDAAQTQLEKLRSFTEIWSLDPLFSAMKKKDGQKISDWITGFIKDNM,-1.69
8,HMRPIWVQLADDFRHRIVSGQWPPGSKIPSVRELAAETGVNPNTVQRALGALDGEGLTATERTAGRFVTT,-0.0115
9,HMPRVLSSYTLTLRHQPTAEAVALVRTLLSPAGSVEVKEDGRTLVVRDELAALSRIVGALRSFDH,-0.139
10,HMAQPIPSGADIRAAREAAGMTLRRFAEYIAGPDFSTWSRYETGKPIRVKNISPEVWQRVRKFIAQNKG,0.129
11,HMESSYKGFILDIETRQFSPTLIQRRGIAINPSGIVETTTEFSFATQEKVLIEDLKLIIDELDLRADY,-2.31
12,HMRGGWESLTDREREIAVLAAEGHSNRTIASTLFISDRTVQSHVSRALRALGVDSRTGIPSLVTTATR,-0.217
13,HMKDRDISNAVLNILSKDSDHNYNYKQIASVLGVKDPFVRKRIVSVLAQLTKNGQLEEISRGKYQIKN,-0.694
14,HMVITQVSTTQTDTTFQYHKVKPKETLFSISRLYEVSIDEIKTINPALNSRELMAGELLKLPIK,-0.337
15,HMNMRVLSEQPNKKSYQDGNLRLKVFGASFKKSDILNEALNQARVEETGLQIPKLLEVKQIDGQWTIVTE,-0.393
16,HMITNESEIERIVEAIISKNPESIAQYRSGITKVLGFLVGQVMKETKGRANPALVNRIIISKME,0.242
17,HMNVSVSITKELQVYINDERISSSALESTLKSKLAGIENPTIILRAEEGVPIEKAVNVMDIANRNRYKIVL,-0.969
18,HMDEAAGVLTQLRAFIAASNLSPGLRLPPERELAEQLGVTRAELRKALAVLEAEGLLWRQVGKGTFYGARP,-0.523
19,HMLPLHFIEIVSLKKIDTLTKRKELINYAFSKNEKTYIYKLAFKKKSELDNLYKEINLFNEIINIDIRHS,-0.943
20,HMRNAAGGIYGWMTLHQVAETVKLTEEEVIAITNLPAGIPRDVSLKNIEGVNDEELRALLEAYLEKQ,-0.968
21,HMAKIDSRKALIDQLTTTFTRAQLEELITKNELSTDARFFLSQWNAKGWIRKTAKNVYEKLR,0.0107
22,HMVLVLPGEMIHVQVIDEGKEMGQGVGYLDDGTMVVVENGLRHIGRAIDVQVTKVLQTNAGRMIFGQPIL,-0.952
23,HMSPAPVSVDHLAFPTRDLEATDHFYSKVVGATLVHAESGYSPSWKSDYLLITYALPDGTRLSFFDWP,-0.133
24,HMVREVSYDQFLHFVEAKQVGMVYQDGESLMFTLKEDVEKEWGVTAYKTGLWPDANLTDRLLDAGVVFS,-1.65
25,HMDADTVGQIRVVKQILDDGRLIVVDASGNPVLVRRSSALSLTAISQGDRIIVDPSVRLAIELLPNE,0.148
26,HMQRIFIDNHDRILYYSNPAGYIAGKEAVVDTMFQTQELERFLQKQSLSIRWEDGVYDRLLLGQ,-0.725
27,HMRSRHYRFSTPFLDRLIAEIDWNSDNALSIFNQKLVHFDFLKYFSAIQPGSIVEIENLNFIWTGKRLEAH,-0.71
28,HMVDFHAAYSILRIAPGASWQEIQAAYEKLNDAWREDRYPQVPFWNEKAAFKRREVEQAYEKLRKFHALRH,0.0778
29,HMSGKMTVPNVVGKTETEAKSALSAKGFTNVRTETVDSTEAAGTVVKQSLDADSVQDPKTEIVLSVSNG,≥ 0.43
30,HMEPVQFIQFKIPDGHPWSGQLLREVRLPPGTLVVLLKHDGKNIIPNGETPLLAGDSVILSAASPT,-0.459
